The results in this text go back to a protein production outcome set (Wang et al. 2014).

A short description of the series: label from the status in PepcDB records.
Consider “MTTVSPDDSSPSTLTSLTFDDLTPGQSASLSRTLTQADLDLFATVSGNIDPSHFADPPAGTTLFPKAIGHGMWSASLISGVLGTRLPGPGTVYLAQDLRFRAPVTLGDTITASVTVREKRTERKTVVFECLCTNQNGVTVVSGTAEVIAPATHASVAAQALPGLQMIRHDRQAALLARCAGLPALPTAVIHPCDGPALQGAVEAAQRGLIEPILVGPSLLIAATAKALGLDISAFRLVEAANGAAAAATGVALVRAGEARAVMKGALHTDELMAAVVKRDGGLRTAGRISHVFLMTVPTYPKPLLITDAVVNIAPSLEDKVHIVQNAIDLARILGVETPKVAILSAVETINPKISSTVDAAALCKMAQRGQIRGGLLDGPLAFDNAISAEAAKTKGIVSEVAGQADILLVPDLESGNMLAKQLSFLAHADAAGIVLGTSAPVMLTSRADNLAARLASCALAVLIDAASRPRSTVLAAE”, for which the protein production result is “failed”.
Under “MTTYTSIANVIKERRSVRTFTDKAVEKDLLIELLNDATWAPNHKHREPWNCKLYIGEGRKKLVDAVLNSFTEEERAKRGKILSDRFLSTPAQIVVYMNEDPRQIQRDEDYAATCAFMQNFQLLAWERGLGCVWKSGGLNYNPLFIEGIGLTRGQRIVGILHIGYFDKAPEGKARTPITEKMEIIEG” stands “not failed”; under “MTVEEAIALVEQLLSGTRLTKVQEIVFRQCWAGQTYSDIALESDYDLGYIKDVGSELWRSLSQALGEKVTKKNLYTVLKRAAKQNSINPSSSLQLPSLANYTDWGEAIDVSQFYGRTHDLATLSRWVLQDNCRVVSLLGMGGIGKTALSVKLAQQLQGQFEYVIWRSLRHAPSFSDKLTECIKILSNQQVTTLPASSHEQITYLIEYLRKSRCLLILDNFDTLLQDGKRAGSYRQGYEPYGELLWRLGETQHQSCVLITSREKPAQIAALEGDGLPVRTLALSGLEVAAGQTILTLKGLSGSEDQTRQLVECYGGNPLALKIAATSIRDLHEGSIANFLSEGTTVFQGIGHLLEDQFQRLSTLEQQLMYWLAINREKVSSTKLQTAFTSPLSKPKLIETLESLRWRSLIESNTGQFTQQPVVMEYVTDSLVEQVCQEIITESPQYLLTHALMQVQAKDYIRDSQINLIVCPILKQLQITLGSVHQLDLKLGRLIRKLQSKVIETVGYGGGNLLNLLAQLDTDLTGYDFSGLDMRECDLRTVNLHAVNFTQTTFRDCVFAATFGGITSVAFSRDGCQLATSDTSGVINIWDVNNGKQLFNCQEHNSWIWDVAFSSVAPVLASCGQDHTIKLWNTTTGECFNTLHGHTSIVTSVAFSPEGKLLASSSYDHSVKVWDLDTGECLQTFLGHDACVWSVVFHPVGQILATAGEDNTIKLWELQSGCCLKTLQGHQHWVKTIAFNSGGRILASGSFDQNVKLWDIHTGKCVMTLQGHTGVVTSVAFNPKDNLLLSGSYDQSVKVWDRKTGRCLDTLKKHTNRIWSVAFHPQGHLFVSGGDDHAAKIWELGTGQCIKTFQGHSNATYTIAHNWEHSLLASGHEDQTIKLWDLNLHSPHKSNVNTHPFRILQGHSNRVFSVVFSSTGQLLASGSADRTIKLWSPHTGQCLHTLHGHGSWVWAIAFSLDDKLLASGSYDHTVKIWDVSSGQCLQTLQGHPGSVLAVAFSCDGKTLFSSGYEKLVKQWDVETGYCLQTWEADSNRVWAVAVSRDNQYLATGGDDSVVRLWDIGKGVCVRTFSGHTSQVICILFTKDGRRMISSSSDRTIKIWNVSTGECLATLQAHDHWVWSLYLTPDEKTLLSSSWDETIKCWNISTGECWQTLRPARPYEGMIINEVVGLSQAQIATLKALGALEVN”, “failed”; under “MTVGTYAELASVFAALSDETRWEILTELGRADQSASSLATRLPVSRQAIAKHLNALQACGLVESVKVGREIRYRALGAELNKTARTLERIGAEWDRRLAAIKQIAESMEE”, “not failed”.
Turning to “MTVLRKQAREAGVYMKVVRNTLARRAVEGTEYECLTDTFTGPSLLAFSNEHPGAAARLFKDFAKENKDFEIKAAAFEGAVTDADVLATLPTYDEAIARLMMCMKEASAGKLVRTIAAVRDQKEEAAA”, the protein production result is given as “failed”.
With “MTVQTAIFDLIKQAKTIIIHRHQRPDPDAIGSQLGLAAIIKASFPAKRVLTPGKQYHGFDWLGQMDEVTEADYQDALVLILDTANQPRIDGELWNQGKTIVKIDHHPNDDAFGDPQWVDVDASSTSEMIYNWYAPLAAELTLTANAARLLYAGIVGDTGRFLYSATKPSTMRAAAALMEAGADAEAVNRIEDTITLPVARLSAYVYEHLTQLDSGAAYVILTNAILDSFAIGDASTAGVVPLPGRIDTVKCWAIFVQQKEGDFRIRLRSKGPSINGVAKNHDGGGHALASGAKAKDQQEIETVVRELDQVASQYEKEVLEHHHHHH”, the protein production result was “failed”.
